Target: human Adenovirus capsid
Assay: SPR, peptide on adenovirus capsid (FIGS. 13A-13B)

B1: R1A_KRAKV SARS-CoV2 peptide with 6K poly-lysine tail (peptide)
peptide: KKKKKKKRAKVTSAMQTMLFTMLRKL
list of priority (rank by SPR binding, high binders listed first): 5 rank

From patent US20230321209A1
